Source: publication PMC8441365, “SCF^Fbxw5 targets kinesin‐13 proteins to facilitate ciliogenesis” (The EMBO Journal, 2021)

B1: Fbxw5/Skp1 sub-complex (complex, human)
chain 1: MDEGGTPLLPDSLVYQIFLSLGPADVLAAGLVCRQWQAVSRDEFLWREQFYRYYQVARDVPRHPAAMSWYEEFQRLYDTVPCVEVQTLREHTDQVLHLSFSHSGYQFASCSKDCTVKIWSNDLTISLLHSADMRPYNWSYTQFSQFNKDDSLLLASGVFLGPHNSSSGEIAVISLDSFALLSRVRNKPYDVFGCWLTETSLISGNLHRIGDITSCSVLWLNNAFQDVESENVNVVKRLFKIQNLNASTVRTVMVADCSRFDSPDLLLEAGDPATSPCRIFDLGSDNEEVVAGPAPAHAKEGLRHFLDRVLEGRAQPQLSERMLETKVAELLAQGHTKPPERSATGAKSKYLIFTTGCLTYSPHQIGIKQILPHQMTTAGPVLGEGRGSDAFFDALDHVIDIHGHIIGMGLSPDNRYLYVNSRAWPNGAVVADPMQPPPIAEEIDLLVFDLKTMREVRRALRAHRAYTPNDECFFIFLDVSRDFVASGAEDRHGYIWDRHYNICLARLRHEDVVNSVVFSPQEQELLLTASDDATIKAWRSPRTMRVLQAPRPRPRTFFSWLASQRR
chain 2: MPSIKLQSSDGEIFEVDVEIAKQSVTIKTMLEDLGMDPVPLPNVNAAILKKVIQWCTHHKDDPPDDIPVWDQEFLKVDQGTLFELILAANYLDIKGLLDVTCKTVANMIKGKTPEEIRKTFNIKNDFTEEEEAQVRKENQWCEEK
notes: Fbxw5, human; Skp1, human, with deletion of two loops (aa 38-43 and 71-82), plasmid pFastBac1-Skp1ΔΔ; pFastBac1-Skp1ΔΔ is the Skp1 baculovirus plasmid that the methods describe; source: Sf21, co-infected with both baculoviruses, purified (Ni-NTA, Superdex 200); not shown: His tag (from the Ni-NTA purification and precipitation)

Columns and labels:
[1] = target: T1, MCAK (purified from Sf21 cells) (human, UniProt Q99661 1-725); test: pull-down; purified proteins from Sf21 cells, 5-fold molar excess of prey over Fbxw5/Skp1 bait, mixed with competing E. coli lysate in PD buffer (20 mM HEPES pH 7.3, 110 mM K-acetate, 300 mM NaCl, 20 mM imidazole, 0.1% NP-40), precipitated via Ni-NTA agarose, SDS-PAGE; conditions: both partners purified
T1 construct: Kif2c/MCAK, human; also called Kif2c; source: Sf21, purified (Ni-NTA, TEV cleavage, Superdex 200)
T1 sequence (looked up): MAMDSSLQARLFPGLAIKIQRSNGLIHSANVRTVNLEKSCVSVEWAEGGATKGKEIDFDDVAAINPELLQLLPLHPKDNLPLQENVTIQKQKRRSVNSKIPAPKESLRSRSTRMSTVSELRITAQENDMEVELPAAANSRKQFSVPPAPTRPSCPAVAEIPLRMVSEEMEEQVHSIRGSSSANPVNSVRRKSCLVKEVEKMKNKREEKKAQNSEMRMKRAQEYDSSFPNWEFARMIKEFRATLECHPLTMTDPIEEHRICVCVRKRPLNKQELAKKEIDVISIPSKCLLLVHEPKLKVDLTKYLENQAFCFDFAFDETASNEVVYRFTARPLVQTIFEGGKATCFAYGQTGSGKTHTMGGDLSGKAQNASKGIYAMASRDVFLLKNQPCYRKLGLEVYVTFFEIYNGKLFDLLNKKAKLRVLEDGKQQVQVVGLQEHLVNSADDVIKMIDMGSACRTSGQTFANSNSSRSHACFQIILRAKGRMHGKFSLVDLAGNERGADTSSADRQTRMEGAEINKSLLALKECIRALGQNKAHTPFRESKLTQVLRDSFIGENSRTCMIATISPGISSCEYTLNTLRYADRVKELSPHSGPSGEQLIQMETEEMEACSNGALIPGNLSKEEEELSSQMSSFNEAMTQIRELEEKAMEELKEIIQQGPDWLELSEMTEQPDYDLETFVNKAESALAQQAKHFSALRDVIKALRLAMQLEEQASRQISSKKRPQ

Fbxw5/Skp1 sub-complex = target: B1; test: as above; conditions: both partners purified

Binder: B1
- binding result [1]: binds

B2: Kif2a (purified from Sf21 cells) (natural protein, human, UniProt O00139-1 1-679, looked up)
chain: MVTSLNEDNESVTVEWIENGDTKGKEIDLESIFSLNPDLVPDEEIEPSPETPPPPASSAKVNKIVKNRRTVASIKNDPPSRDNRVVGSARARPSQFPEQSSSAQQNGSVSDISPVQAAKKEFGPPSRRKSNCVKEVEKLQEKREKRRLQQQELREKRAQDVDATNPNYEIMCMIRDFRGSLDYRPLTTADPIDEHRICVCVRKRPLNKKETQMKDLDVITIPSKDVVMVHEPKQKVDLTRYLENQTFRFDYAFDDSAPNEMVYRFTARPLVETIFERGMATCFAYGQTGSGKTHTMGGDFSGKNQDCSKGIYALAARDVFLMLKKPNYKKLELQVYATFFEIYSGKVFDLLNRKTKLRVLEDGKQQVQVVGLQEREVKCVEDVLKLIDIGNSCRTSGQTSANAHSSRSHAVFQIILRRKGKLHGKFSLIDLAGNERGADTSSADRQTRLEGAEINKSLLALKECIRALGRNKPHTPFRASKLTQVLRDSFIGENSRTCMIATISPGMASCENTLNTLRYANRVKELTVDPTAAGDVRPIMHHPPNQIDDLETQWGVGSSPQRDDLKLLCEQNEEEVSPQLFTFHEAVSQMVEMEEQVVEDHRAVFQESIRWLEDEKALLEMTEEVDYDVDSYATQLEAILEQKIDILTELRDKVKSFRAALQEEEQASKQINPKRPRAL
notes: source: Sf21, purified (Ni-NTA, TEV cleavage, Superdex 200)
- binding result (Fbxw5/Skp1 sub-complex): binds
